Measurements as given in patent US20060241051A1 (Takeda / Millennium, published 2006).
Like-named read-outs stand apart in the source and are kept apart here. Square brackets hold non-standard residues; d marks the D form. Ends that are not written are not given here. * marks the point of attachment. 2‑(indol-3-yl)ethylcarbamoyl = O=C(NCCc1c[nH]c2ccccc12)*; Cyclohexanecarbonyl = O=C(C1CCCCC1)*; Arg(Me) = CNC(=N)NCCC[C@H](N)C(=O)O; d3Pal = N[C@H](Cc1cccnc1)C(=O)O; Cha = N[C@@H](CC1CCCCC1)C(=O)O; amidino = N=C(N)*; azaGly = NNC(=O)O

Tests used:
[1] = biological target: T1, human OT7T175 (metastin receptor) (human, UniProt Q969F8 1-398); test: cell-based or functional assay
T1 sequence (Q969F8 whole entry L364H): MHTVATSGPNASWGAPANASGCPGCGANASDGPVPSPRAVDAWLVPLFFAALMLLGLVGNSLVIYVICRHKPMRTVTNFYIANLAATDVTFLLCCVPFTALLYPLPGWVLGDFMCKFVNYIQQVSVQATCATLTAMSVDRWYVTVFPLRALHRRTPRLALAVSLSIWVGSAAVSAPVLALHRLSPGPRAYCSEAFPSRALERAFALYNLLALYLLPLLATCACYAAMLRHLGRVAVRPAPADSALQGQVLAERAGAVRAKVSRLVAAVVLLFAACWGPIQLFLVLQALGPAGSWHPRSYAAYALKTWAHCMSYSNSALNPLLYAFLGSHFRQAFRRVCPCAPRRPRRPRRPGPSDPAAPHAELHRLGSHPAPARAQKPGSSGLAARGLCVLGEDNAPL

[2] = biological target: T1, human OT7T175 (metastin receptor); test: FMAT competition with Cy-5-labeled metastin (40-54), hOT7T175-expressed CHO cells
Procedure: h0T7T175-Expressed CHO cells were cultured in MEM-α medium (nucleic acid-free) containing 10% dialyzed serum. The medium was removed and the adherent cells were washed with PBS. Then, PBS containing 5 mM EDTA was added and the cells were scraped from a flask with a cell scraper. […] To each well of a 96-Well Black Clear Bottom Plate (Applied Biosystems, Inc.), 10 μL of assay buffer containing 1% dimethylsulfoxide was added to examine total binding, 10 μL of 10 μM non-labeled peptide (having the same amino acid sequence as that of the labeled one) solution diluted with assay buffer to examine non-specific binding, and 10 μL of a test compound diluted with assay buffer to examine the binding inhibition activity of the test compound, respectively. Furthermore, 90 μL each of the cell suspension was dispensed to each well. […] The specific binding is a value obtained by subtracting the non-specific binding from the total binding.

[3] = biological target: T1, human OT7T175 (metastin receptor); test: cell-based or functional assay; remark: listed apart in the source

Binder | intracellular Ca ion level-increasing activity (FLIPR) [1] | IC50 [2] | intracellular Ca ion level-increasing activity (FLIPR) [3]
[d3Pal][dN][Cha]NSF[azaGly]L[Arg(Me)]F-NH2 (N-terminus assumed; SMILES CNC(=N)NCCC[C@H](NC(=O)[C@H](CC(C)C)NC(=O)NNC(=O)[C@H](Cc1ccccc1)NC(=O)[C@H](CO)NC(=O)[C@H](CC(N)=O)NC(=O)[C@H](CC1CCCCC1)NC(=O)[C@@H](CC(N)=O)NC(=O)[C@H](N)Cc1cccnc1)C(=O)N[C@@H](Cc1ccccc1)C(N)=O) [Compound No. 290: [D-Pya(3)1,D-Asn2,Cha3,AzaGly7,Arg(Me)9]MS10] | 1 specific activity to metastin (1-54) | 1.4 nM | 
{n‑Hexanoyl}-NSF[azaGly]L[Arg(Me)]F-NH2 [Compound No. 277: des(1-3)-n-Hexanoyl-[AzaGly7,Arg(Me)9]MS10] | 2 specific activity to metastin (1-54) | 54 nM | 
Cyclohexanecarbonyl-NSF[azaGly]L[Arg(Me)]F-NH2 (SMILES CNC(=N)NCCC[C@H](NC(=O)[C@H](CC(C)C)NC(=O)NNC(=O)[C@H](Cc1ccccc1)NC(=O)[C@H](CO)NC(=O)[C@H](CC(N)=O)NC(=O)C1CCCCC1)C(=O)N[C@@H](Cc1ccccc1)C(N)=O) [Compound No. 278: des(1-3)-Cyclohexanecarbonyl-[AzaGly7, Arg(Me)9]MS10] | 2 specific activity to metastin (1-54) | 110 nM | 
[dY][dW]NSF[azaGly]L[Arg(Me)]F-NH2 [Compound No. 242: des(1)-[D-Tyr2,D-Trp3,AzaGly7,Arg(Me)9]MS10] |  | 70 nM | 2 specific activity to metastin (1-54)
[dY]NWNSFAL[Arg(Me)]F-NH2 (N-terminus assumed; SMILES CNC(=N)NCCC[C@H](NC(=O)[C@H](CC(C)C)NC(=O)[C@H](C)NC(=O)[C@H](Cc1ccccc1)NC(=O)[C@H](CO)NC(=O)[C@H](CC(N)=O)NC(=O)[C@H](Cc1c[nH]c2ccccc12)NC(=O)[C@H](CC(N)=O)NC(=O)[C@H](N)Cc1ccc(O)cc1)C(=O)N[C@@H](Cc1ccccc1)C(N)=O, printed structure is the same as that of Compound No. 173) [Compound No. 204: [D-Tyr1, Ala7, Arg(Me)9]MS10] |  | 680 nM | 5 specific activity to metastin (1-54)
[dY]NWASFGL[Arg(Me)]F-NH2 (N-terminus assumed; SMILES CNC(=N)NCCC[C@H](NC(=O)[C@H](CC(C)C)NC(=O)CNC(=O)[C@H](Cc1ccccc1)NC(=O)[C@H](CO)NC(=O)[C@H](C)NC(=O)[C@H](Cc1c[nH]c2ccccc12)NC(=O)[C@H](CC(N)=O)NC(=O)[C@H](N)Cc1ccc(O)cc1)C(=O)N[C@@H](Cc1ccccc1)C(N)=O) [Compound No. 210: [D-Tyr1,Ala4,Arg(Me)9]MS10] |  | 730 nM | 1 specific activity to metastin (1-54)
[dY]NWNAFGL[Arg(Me)]F-NH2 (N-terminus assumed; SMILES CNC(=N)NCCC[C@H](NC(=O)[C@H](CC(C)C)NC(=O)CNC(=O)[C@H](Cc1ccccc1)NC(=O)[C@H](C)NC(=O)[C@H](CC(N)=O)NC(=O)[C@H](Cc1c[nH]c2ccccc12)NC(=O)[C@H](CC(N)=O)NC(=O)[C@H](N)Cc1ccc(O)cc1)C(=O)N[C@@H](Cc1ccccc1)C(N)=O) [Compound No. 212: [D-Tyr1,Ala5,Arg(Me)9]MS10] |  | 36 nM | 10 specific activity to metastin (1-54)
[dY]QWNSFGL[Arg(Me)]F-NH2 (N-terminus assumed; SMILES CNC(=N)NCCC[C@H](NC(=O)[C@H](CC(C)C)NC(=O)CNC(=O)[C@H](Cc1ccccc1)NC(=O)[C@H](CO)NC(=O)[C@H](CC(N)=O)NC(=O)[C@H](Cc1c[nH]c2ccccc12)NC(=O)[C@H](CCC(N)=O)NC(=O)[C@H](N)Cc1ccc(O)cc1)C(=O)N[C@@H](Cc1ccccc1)C(N)=O) [Compound No. 214: [D-Tyr1,Gln2,Arg(Me)9]MS10] |  | 390 nM | 10 specific activity to metastin (1-54)
[dY]NVNSFGL[Arg(Me)]F-NH2 (N-terminus assumed; SMILES CNC(=N)NCCC[C@H](NC(=O)[C@H](CC(C)C)NC(=O)CNC(=O)[C@H](Cc1ccccc1)NC(=O)[C@H](CO)NC(=O)[C@H](CC(N)=O)NC(=O)[C@@H](NC(=O)[C@H](CC(N)=O)NC(=O)[C@H](N)Cc1ccc(O)cc1)C(C)C)C(=O)N[C@@H](Cc1ccccc1)C(N)=O) [Compound No. 229: [D-Tyr1,Val3,Arg(Me)9]MS10] |  | 130 nM | 1 specific activity to metastin (1-54)
[dY]NINSFGL[Arg(Me)]F-NH2 (N-terminus assumed; SMILES CC[C@H](C)[C@H](NC(=O)[C@H](CC(N)=O)NC(=O)[C@H](N)Cc1ccc(O)cc1)C(=O)N[C@@H](CC(N)=O)C(=O)N[C@@H](CO)C(=O)N[C@@H](Cc1ccccc1)C(=O)NCC(=O)N[C@@H](CC(C)C)C(=O)N[C@@H](CCCNC(=N)NC)C(=O)N[C@@H](Cc1ccccc1)C(N)=O) [Compound No. 206: [D-Tyr1,Ile3,Arg(Me)9]MS10] |  | 85 nM | 10 specific activity to metastin (1-54)
[dY]NWNSFGV[Arg(Me)]F-NH2 [Compound No. 213: [D-Tyr1,Val8,Arg(Me)9]MS10] |  | 190 nM | 2 specific activity to metastin (1-54)
[dY]NTNSFGL[Arg(Me)]F-NH2 (N-terminus assumed; SMILES CNC(=N)NCCC[C@H](NC(=O)[C@H](CC(C)C)NC(=O)CNC(=O)[C@H](Cc1ccccc1)NC(=O)[C@H](CO)NC(=O)[C@H](CC(N)=O)NC(=O)[C@@H](NC(=O)[C@H](CC(N)=O)NC(=O)[C@H](N)Cc1ccc(O)cc1)[C@@H](C)O)C(=O)N[C@@H](Cc1ccccc1)C(N)=O) [Compound No. 205: [D-Tyr1,Thr3,Arg(Me)9]MS10] |  | 260 nM | 10 specific activity to metastin (1-54)
[dY]TWNSFGL[Arg(Me)]F-NH2 (N-terminus assumed; SMILES CNC(=N)NCCC[C@H](NC(=O)[C@H](CC(C)C)NC(=O)CNC(=O)[C@H](Cc1ccccc1)NC(=O)[C@H](CO)NC(=O)[C@H](CC(N)=O)NC(=O)[C@H](Cc1c[nH]c2ccccc12)NC(=O)[C@@H](NC(=O)[C@H](N)Cc1ccc(O)cc1)[C@@H](C)O)C(=O)N[C@@H](Cc1ccccc1)C(N)=O) [Compound No. 215: [D-Tyr1,Thr2,Arg(Me)9]MS10] |  | 250 nM | 10 specific activity to metastin (1-54)
[dY]NWTSFGL[Arg(Me)]F-NH2 [Compound No. 208: [D-Tyr1,Thr4,Arg(Me)9]MS10] |  | 830 nM | 1 specific activity to metastin (1-54)
[dY]NWNTFGL[Arg(Me)]F-NH2 (N-terminus assumed; SMILES CNC(=N)NCCC[C@H](NC(=O)[C@H](CC(C)C)NC(=O)CNC(=O)[C@H](Cc1ccccc1)NC(=O)[C@@H](NC(=O)[C@H](CC(N)=O)NC(=O)[C@H](Cc1c[nH]c2ccccc12)NC(=O)[C@H](CC(N)=O)NC(=O)[C@H](N)Cc1ccc(O)cc1)[C@@H](C)O)C(=O)N[C@@H](Cc1ccccc1)C(N)=O) [Compound No. 211: [D-Tyr1,Thr5,Arg(Me)9]MS10] |  | 44 nM | 10 specific activity to metastin (1-54)
WNSF[azaGly]L[Arg(Me)]F-NH2 (N-terminus assumed; SMILES CNC(=N)NCCC[C@H](NC(=O)[C@H](CC(C)C)NC(=O)NNC(=O)[C@H](Cc1ccccc1)NC(=O)[C@H](CO)NC(=O)[C@H](CC(N)=O)NC(=O)[C@@H](N)Cc1c[nH]c2ccccc12)C(=O)N[C@@H](Cc1ccccc1)C(N)=O) [Compound No. 271: des(1-2)-[AzaGly7,Arg(Me)9]MS10] | 1 specific activity to metastin (1-54) | 120 nM | 
Ac-WNSF[azaGly]L[Arg(Me)]F-NH2 (SMILES CNC(=N)NCCC[C@H](NC(=O)[C@H](CC(C)C)NC(=O)NNC(=O)[C@H](Cc1ccccc1)NC(=O)[C@H](CO)NC(=O)[C@H](CC(N)=O)NC(=O)[C@H](Cc1c[nH]c2ccccc12)NC(C)=O)C(=O)N[C@@H](Cc1ccccc1)C(N)=O) [Compound No. 272: des(1-2)-Acetyl-[AzaGly7,Arg(Me)9]MS10] | 2 specific activity to metastin (1-54) | 540 nM | 
{2‑(indol-3-yl)ethylcarbamoyl}-NSF[azaGly]L[Arg(Me)]F-NH2 (SMILES CNC(=N)NCCC[C@H](NC(=O)[C@H](CC(C)C)NC(=O)NNC(=O)[C@H](Cc1ccccc1)NC(=O)[C@H](CO)NC(=O)[C@H](CC(N)=O)NC(=O)NCCc1c[nH]c2ccccc12)C(=O)N[C@@H](Cc1ccccc1)C(N)=O) [Compound No. 279: des(1-3)-2-(Indol-3-yl)ethylcarbamoyl-[AzaGly7,Arg(Me)9]MS10] | 5 specific activity to metastin (1-54) | 29 nM | 
YNWNSXGLRF (D-Tyr1; Pya(2)6; Arg(Me)9; C-terminal amide) [Compound No. 281: [D-Tyr1,Pya(2)6,Arg(Me)9]MS10] | 0.5 specific activity to metastin (1-54) | 230 nM | 
amidino-WNSF[azaGly]L[Arg(Me)]F-NH2 (SMILES CNC(=N)NCCC[C@H](NC(=O)[C@H](CC(C)C)NC(=O)NNC(=O)[C@H](Cc1ccccc1)NC(=O)[C@H](CO)NC(=O)[C@H](CC(N)=O)NC(=O)[C@H](Cc1c[nH]c2ccccc12)NC(=N)N)C(=O)N[C@@H](Cc1ccccc1)C(N)=O) [Compound No. 273: des(1-2)-Amidino-[AzaGly7,Arg(Me)9]MS10] | 5 specific activity to metastin (1-54) | 300 nM | 
